Assay results published in US20200087372A1 (ZEALAND PHARMA A S, published 2020).

Tests used:
Test in all cases: cell-based or functional assay
[1] = target: human glucagon-like peptide 1 receptor (GLP-1R) (human, UniProt P43220 24-463)
[2] = target: human glucagon receptor (Glucagon-R) (human, UniProt P47871 26-477)
[3] = target: T1, endogenous GLP-1 receptor of a murine insulinoma cell line (murine, UniProt O35659 22-463)
T1 sequence (looked up): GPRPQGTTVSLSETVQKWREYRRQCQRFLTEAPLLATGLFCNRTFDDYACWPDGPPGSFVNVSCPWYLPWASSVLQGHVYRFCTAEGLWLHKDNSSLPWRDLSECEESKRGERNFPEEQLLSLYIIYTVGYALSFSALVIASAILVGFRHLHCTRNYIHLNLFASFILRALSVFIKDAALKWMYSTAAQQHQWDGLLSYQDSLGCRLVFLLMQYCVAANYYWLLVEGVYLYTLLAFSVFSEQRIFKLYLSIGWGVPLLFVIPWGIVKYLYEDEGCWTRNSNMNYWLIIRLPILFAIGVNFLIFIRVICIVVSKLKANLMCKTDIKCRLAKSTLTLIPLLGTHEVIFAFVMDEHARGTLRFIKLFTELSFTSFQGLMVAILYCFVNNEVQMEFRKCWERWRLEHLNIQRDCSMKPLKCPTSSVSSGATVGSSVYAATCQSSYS

[4] = target: endogenous glucagon receptor of primary rat hepatocytes (rat, UniProt P30082 27-485)
Chain of endogenous glucagon receptor of primary rat hepatocytes (P30082 27-485): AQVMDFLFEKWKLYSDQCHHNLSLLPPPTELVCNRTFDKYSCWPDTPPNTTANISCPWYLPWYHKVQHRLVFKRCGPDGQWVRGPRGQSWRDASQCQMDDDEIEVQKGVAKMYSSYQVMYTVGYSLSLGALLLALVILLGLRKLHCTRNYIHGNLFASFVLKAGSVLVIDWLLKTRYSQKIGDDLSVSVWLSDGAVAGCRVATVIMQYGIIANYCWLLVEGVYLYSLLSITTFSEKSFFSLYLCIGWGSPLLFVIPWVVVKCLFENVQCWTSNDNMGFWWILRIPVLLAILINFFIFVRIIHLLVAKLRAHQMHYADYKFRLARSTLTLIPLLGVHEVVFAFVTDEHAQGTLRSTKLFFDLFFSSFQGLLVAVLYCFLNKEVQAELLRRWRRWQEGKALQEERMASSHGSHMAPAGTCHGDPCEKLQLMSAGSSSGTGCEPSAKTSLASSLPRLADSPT

Chain of human glucagon receptor (Glucagon-R) (P47871 26-477): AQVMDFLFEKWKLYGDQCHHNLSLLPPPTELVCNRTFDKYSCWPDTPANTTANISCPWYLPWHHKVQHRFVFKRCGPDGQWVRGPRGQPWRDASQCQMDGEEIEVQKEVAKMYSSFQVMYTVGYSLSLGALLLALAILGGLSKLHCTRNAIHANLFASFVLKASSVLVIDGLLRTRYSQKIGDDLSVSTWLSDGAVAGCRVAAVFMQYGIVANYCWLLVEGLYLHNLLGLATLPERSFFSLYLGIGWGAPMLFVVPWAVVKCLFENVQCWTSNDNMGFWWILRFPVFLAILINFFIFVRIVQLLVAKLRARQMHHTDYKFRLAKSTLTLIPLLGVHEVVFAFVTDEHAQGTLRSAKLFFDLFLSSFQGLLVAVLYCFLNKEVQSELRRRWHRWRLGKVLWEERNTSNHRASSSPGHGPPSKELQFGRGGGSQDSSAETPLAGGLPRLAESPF

EC50 hGLP-1R CHO-K1 [nM] (cAMP, AlphaScreen) [1]: 0.48 nM | EC50 hGCGR CHO-K1 [nM] (cAMP, AlphaScreen) [2]: 3.6 nM | EC50 [nM] (cAMP in murine insulinoma cells) [3]: 0.54 nM | EC50 [nM] (inhibition of glycogen synthesis rate in primary rat hepatocytes) [4]: 5.6 nM
B1: Compound 1: H-H-Aib-QGTFTSDYSKYLDERAAKDFIEWLE-K([17-Carboxy-heptadecanoyl]-isoGlu-GSGSGG)-A-NH2 (peptide)
peptide: HAQGTFTSDYSKYLDERAAKDFIEWLEKA
modifications: Aib (alpha-aminoisobutyric acid) at position 2; Lys 28 conjugated via its epsilon amino group to [17-Carboxy-heptadecanoyl]-isoGlu-GSGSGG; C-terminal amide (NH2); free N-terminus (R1 = H)
